Fold diff data for one molecule are collected here from US20220332804A1 (CSL INNOVATION, published 2022).

Holding throughout (assay): SPR, KD relative to WT C2;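 also: biacore SPR at 37 °C, anti-C2 mAbs captured via immobilised goat anti-human IgG, C2 alanine or serine surface mutants as analytes, 1:1 model fitted, double-referenced sensograms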
For orientation: SPR reads the build-up and loss of mass on a sensor chip optically.

The target of one assay is T1, human C2 V465A (human, UniProt P06681 21-752).
T1 sequence: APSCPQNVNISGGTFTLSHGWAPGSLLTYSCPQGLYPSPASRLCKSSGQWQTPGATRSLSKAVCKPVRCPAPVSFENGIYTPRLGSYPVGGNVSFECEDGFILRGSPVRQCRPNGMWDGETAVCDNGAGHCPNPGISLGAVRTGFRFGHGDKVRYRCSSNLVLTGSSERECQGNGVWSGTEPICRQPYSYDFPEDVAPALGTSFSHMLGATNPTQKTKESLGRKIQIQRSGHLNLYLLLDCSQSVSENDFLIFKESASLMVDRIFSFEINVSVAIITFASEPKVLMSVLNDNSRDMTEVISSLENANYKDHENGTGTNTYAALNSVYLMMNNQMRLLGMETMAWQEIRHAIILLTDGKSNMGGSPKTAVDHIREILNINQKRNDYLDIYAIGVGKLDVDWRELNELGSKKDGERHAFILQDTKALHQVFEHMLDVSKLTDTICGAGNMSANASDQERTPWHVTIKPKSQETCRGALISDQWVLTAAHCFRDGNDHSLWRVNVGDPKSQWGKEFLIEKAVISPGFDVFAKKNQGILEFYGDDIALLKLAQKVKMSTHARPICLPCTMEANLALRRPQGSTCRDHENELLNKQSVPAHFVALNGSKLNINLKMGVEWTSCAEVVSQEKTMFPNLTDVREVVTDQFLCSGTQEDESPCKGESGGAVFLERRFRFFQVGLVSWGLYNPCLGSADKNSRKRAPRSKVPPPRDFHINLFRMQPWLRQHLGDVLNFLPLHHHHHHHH

A further assay addresses T2, human C2 L706A (human, UniProt P06681 21-752).
T2 sequence: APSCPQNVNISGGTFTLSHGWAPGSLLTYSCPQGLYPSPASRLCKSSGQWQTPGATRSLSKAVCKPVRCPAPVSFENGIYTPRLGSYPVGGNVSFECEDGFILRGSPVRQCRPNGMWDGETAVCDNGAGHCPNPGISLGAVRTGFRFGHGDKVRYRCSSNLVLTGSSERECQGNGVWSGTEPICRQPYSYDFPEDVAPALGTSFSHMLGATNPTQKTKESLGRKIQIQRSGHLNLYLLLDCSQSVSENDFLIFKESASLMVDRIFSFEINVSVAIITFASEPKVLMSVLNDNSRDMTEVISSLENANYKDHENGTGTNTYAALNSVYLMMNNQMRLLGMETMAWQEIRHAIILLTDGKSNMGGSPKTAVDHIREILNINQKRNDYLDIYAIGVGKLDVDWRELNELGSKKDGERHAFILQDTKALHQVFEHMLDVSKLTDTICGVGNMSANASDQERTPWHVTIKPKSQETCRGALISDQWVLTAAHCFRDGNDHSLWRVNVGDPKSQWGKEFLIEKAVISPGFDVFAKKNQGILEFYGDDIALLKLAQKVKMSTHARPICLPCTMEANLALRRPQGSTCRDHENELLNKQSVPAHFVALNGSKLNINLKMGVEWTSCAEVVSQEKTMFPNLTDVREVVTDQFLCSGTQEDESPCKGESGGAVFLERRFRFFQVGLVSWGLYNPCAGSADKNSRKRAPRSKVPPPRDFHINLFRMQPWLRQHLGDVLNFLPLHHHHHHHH

A further assay concerns the target T3, human C2 A326S (human, UniProt P06681 21-752).
T3 sequence: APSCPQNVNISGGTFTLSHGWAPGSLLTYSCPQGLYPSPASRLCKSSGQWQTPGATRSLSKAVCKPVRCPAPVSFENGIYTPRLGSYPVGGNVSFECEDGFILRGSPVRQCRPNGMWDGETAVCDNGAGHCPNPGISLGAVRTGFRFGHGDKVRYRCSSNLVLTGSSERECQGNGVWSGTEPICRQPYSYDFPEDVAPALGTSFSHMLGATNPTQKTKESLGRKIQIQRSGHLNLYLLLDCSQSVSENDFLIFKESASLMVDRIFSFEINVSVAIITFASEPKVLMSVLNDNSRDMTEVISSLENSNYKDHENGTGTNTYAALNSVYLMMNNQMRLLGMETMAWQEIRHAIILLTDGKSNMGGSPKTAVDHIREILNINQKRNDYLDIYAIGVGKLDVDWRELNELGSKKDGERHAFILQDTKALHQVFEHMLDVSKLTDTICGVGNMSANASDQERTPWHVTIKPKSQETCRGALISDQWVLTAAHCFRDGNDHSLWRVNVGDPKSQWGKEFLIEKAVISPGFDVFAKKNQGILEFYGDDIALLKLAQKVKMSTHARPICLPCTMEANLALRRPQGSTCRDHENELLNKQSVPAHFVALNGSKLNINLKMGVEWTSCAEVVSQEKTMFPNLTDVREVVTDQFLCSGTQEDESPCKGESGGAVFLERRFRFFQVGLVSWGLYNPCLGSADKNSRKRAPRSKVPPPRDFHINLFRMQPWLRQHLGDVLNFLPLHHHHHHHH

Another assay has as its target T4, human C2 N467A (human, UniProt P06681 21-752).
T4 sequence: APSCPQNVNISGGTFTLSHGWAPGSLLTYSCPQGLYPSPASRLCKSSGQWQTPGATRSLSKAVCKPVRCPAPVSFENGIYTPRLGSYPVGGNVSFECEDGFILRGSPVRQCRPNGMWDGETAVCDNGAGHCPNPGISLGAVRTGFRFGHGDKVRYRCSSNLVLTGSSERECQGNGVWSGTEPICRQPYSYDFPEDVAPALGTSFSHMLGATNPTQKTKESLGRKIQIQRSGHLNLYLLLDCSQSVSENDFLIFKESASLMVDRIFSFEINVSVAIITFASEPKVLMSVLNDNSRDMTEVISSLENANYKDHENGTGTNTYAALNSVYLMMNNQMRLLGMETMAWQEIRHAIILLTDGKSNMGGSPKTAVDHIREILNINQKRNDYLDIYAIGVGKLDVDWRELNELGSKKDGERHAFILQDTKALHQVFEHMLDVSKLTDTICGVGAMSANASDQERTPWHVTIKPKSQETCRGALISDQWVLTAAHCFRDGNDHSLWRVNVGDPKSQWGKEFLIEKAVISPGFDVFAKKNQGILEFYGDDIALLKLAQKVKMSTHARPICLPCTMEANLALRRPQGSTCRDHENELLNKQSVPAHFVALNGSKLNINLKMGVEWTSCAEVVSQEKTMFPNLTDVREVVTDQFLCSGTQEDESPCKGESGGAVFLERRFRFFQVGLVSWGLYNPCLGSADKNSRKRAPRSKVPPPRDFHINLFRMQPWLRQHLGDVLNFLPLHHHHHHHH

B1: RF16-226 (antibody, human IgG4 S228P, lambda)
heavy: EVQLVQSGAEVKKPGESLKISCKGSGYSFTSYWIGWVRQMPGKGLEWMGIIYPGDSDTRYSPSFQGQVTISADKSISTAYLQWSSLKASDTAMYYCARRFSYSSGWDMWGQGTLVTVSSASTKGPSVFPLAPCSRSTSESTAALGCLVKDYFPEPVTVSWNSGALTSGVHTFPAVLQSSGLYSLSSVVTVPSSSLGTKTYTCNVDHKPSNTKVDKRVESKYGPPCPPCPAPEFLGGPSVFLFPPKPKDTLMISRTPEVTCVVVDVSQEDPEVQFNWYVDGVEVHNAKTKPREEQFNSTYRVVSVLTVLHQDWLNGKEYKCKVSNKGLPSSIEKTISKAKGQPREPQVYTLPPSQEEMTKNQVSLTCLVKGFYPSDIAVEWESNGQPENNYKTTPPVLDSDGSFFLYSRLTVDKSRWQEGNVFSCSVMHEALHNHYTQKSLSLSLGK
light: SYELTQPPSVSVSPGQTARITCSGDALTSKYVAWYQQKSGLAPLLVIYEDTRRPSGIPAKFSGSSSGSVATLTISGAHGDDEADYYCYSTDASGHQRVFGGGTKLTVLSQPKAAPSVTLFPPSSEELQANKATLVCLISDFYPGAVTVAWKADGSPVKAGVETTKPSKQSNNKYAASSYLSLTPEQWKSHRSYSCQVTHEGSTVEKTVAPTECS
notes: pH-dependent anti-C2 antibody from a phage display library; also called WT
For the molecule B1, the Fold diff with human C2 V465A came to 2 fold; with human C2 L706A it was 23 fold; with human C2 A326S, 1 fold; with human C2 N467A it was 2 fold.
